# Reference: patent publication US20040076637A1, “HIV-derived HR1 peptides modified to form stable trimers, and their use in therapy to inhibit transmission of human immunodeficiency virus” (priority 2002, published 2004)
# Key:
# HIV IIIB = format: cell-based, HIV-1; conditions: for Antiviral activity against HIV IIIB IC50: 50% reduction in infectious virus titer; for Antiviral activity against HIV IIIB IC90: 90% reduction in infectious titer
# [1] = Oligomerization state by sedimentation equilibrium (analytical ultracentrifuge); format: physicochemical; conditions: in solution, 4° C.
# Procedure: Oligomerization state was assessed by using methods standard in the art for performing sedimentation equilibrium experiments and for analysis of the resultant data. In that regard, sedimentation equilibrium experiments were performed over a concentration range of synthetic peptide (1 μM to […]) as follows. Briefly, six-channel cells (12 mm optical path length) were used with an An-60 Ti rotor operated at 13,500 rpm, 18,000 rpm, 22,000 rpm, and 35,000 rpm) in an analytical ultracentrifuge at 4° C. The cell radii were scanned using 0.001 cm steps with 10 averages/scan at 3 different wavelengths (235 nm, 240 nm, 280 nm). Data obtained with solutions containing synthetic peptide was analyzed using a single species model to determine a weight-averaged molecular weight (MW). Diagnostic plots of MW/MW0 vs. rpm/rpm0 and MW vs. radial concentration were used to test for sample homogeneity. When systemic residuals or a MW higher than monomer molecular weight indicated the presence of self-association, associative models were investigated. The suitability of a model (goodness of fit) was judged by the trends observed in the residuals.
# [2] = Helicity by circular dichroism; format: physicochemical; conditions: at 10 μM, 25° C.
# Procedure: (§1) Helicity was assessed by circular dichroism (“CD”) as follows. Briefly, CD spectra were obtained using a spectrometer equipped with a thermoelectric temperature controller. The spectra was obtained at 25° C. with 0.5 nanometer (nm) steps from 200 to 260 nm, with a 1.5 nm bandwith, and a typical averaging time of 4 seconds/step. After the cell/buffer blank was subtracted, spectra were smoothed using a third-order least-squares polynomial fit with a conservative window size to give random residuals. Raw ellipticity values were converted to mean residue ellipticity using standard methods, and plotted was the wavelength (from 200 to 260 nm) versus [θ]×10^−3 (degrees cm^2/dmol). Percent helicity values were then calculated using standard methods. Assessment of thermal stability was performed by monitoring the change in CD signal at 222 nm as temperature was raised in 2° C. steps, with 1 minute equilibration times. The thermal stability for each sample (e.g., synthetic peptide) was represented by the transition temperature (Tm) determined by the derivative method.
# [3] = Thermal stability (Tm) by CD signal at 222 nm; format: physicochemical; conditions: at 10 μM
# Procedure: as §1
# [4] = tested on: HR2 peptide (SEQ ID NO:33) derived from the HR2 region of HIV-1 gp41; assay: HR2 peptide binding, fluorescence polarization assay; conditions: ability to complex with HR2 peptide denoted as yes
# From the text: These include a protein chip assay (using Biacore analysis) in which surface plasmon resonance is used to detect the binding, and kinetics thereof, between a synthetic peptide and an HR2 peptide; and a fluorescence polarization assay. In the fluorescence polarization assay, a detectable moiety comprising a fluorescent dye (e.g., rhodamine and/or fluorescein) was used to label HR2 peptide, and the assay was then allowed to proceed under sufficient conditions and for a sufficient period of time for labeled peptide to bind to HR1 peptide, or synthetic peptide (or trimer formed therefrom).
# HIV infection of T cells = conditions: cited from earlier work
# [5] = at concentrations of 5 μM or less; cited from earlier work
# [6] = biological target: HR2 peptide having the amino acid sequence of SEQ ID NO:33 (HIV-1); assay: surface plasmon resonance (Biacore protein chip assay)
Molecule,Antiviral activity against HIV IIIB IC50 (HIV IIIB) [µg/mL],Antiviral activity against HIV IIIB IC90 (HIV IIIB) [µg/mL],Oligomerization [1],Helicity [2] [%],Stability Tm [3] [°C],HR2 peptide binding [4],"50% effective concentration (EC50), blocked infection of T cells (HIV infection of T cells) [µg/mL]",Oligomerization state in solution [5],Kd [6] [nM]
"SEQ ID NO: 39: Same as SEQ ID NO:32 except substitutions at 6, 20, 41, 48 and 9, 16, 44; Asp and Gln added to C-terminus (QARQLVSGLVQQQNNILRALEAQQHALQATVWGIKQLQARVLALERYIKDQ)",0.26,1.20,Trimer*,63,68,Yes,–,–,–
"DP107: HR1 peptide, also known as T-21, a synthetic peptide having the amino acid sequence of SEQ ID NO:2 (NNLLRAIEAQQHLLQLTVWGIKQLQARILAVERYLKDQ)",–,–,–,–,–,–,1,monomer/dimer/tetramer equilibrium,–
"SEQ ID NO: 38: Same as SEQ ID NO:32 except substitutions at 27, 34, 41, 48 and 23, 30, 44; Asp and Gln added to C-terminus (QARQLLSGIVQQQNNLLRAIEATQHAVQALVWGVKQLQARVLALERYIKDQ)",0.18,0.88,Trimer*,79,90,Yes,–,–,–
QARQLVSGLVQQQNNILRALEATQHAVQALVWGVKQLQARVLALERYIK (modifications not checked) [synthetic peptide having the amino acid sequence of SEQ ID NO:35],–,–,–,–,–,–,–,–,21.8
